Biological target: T1, His-BHEXIM1 (bovine, UniProt Q0X0C4 1-320)
T1 construct: bovine HEXIM1 (320 amino acids); pETH vector; the only BHEXIM1 cDNA described was amplified from the start to the stop codon (320 aa), so the construct is probably whole; also called purified BHEXIM1 protein; source: E. coli BL21 (DE3), purified (His Sepharose 6)
T1 sequence (looked up): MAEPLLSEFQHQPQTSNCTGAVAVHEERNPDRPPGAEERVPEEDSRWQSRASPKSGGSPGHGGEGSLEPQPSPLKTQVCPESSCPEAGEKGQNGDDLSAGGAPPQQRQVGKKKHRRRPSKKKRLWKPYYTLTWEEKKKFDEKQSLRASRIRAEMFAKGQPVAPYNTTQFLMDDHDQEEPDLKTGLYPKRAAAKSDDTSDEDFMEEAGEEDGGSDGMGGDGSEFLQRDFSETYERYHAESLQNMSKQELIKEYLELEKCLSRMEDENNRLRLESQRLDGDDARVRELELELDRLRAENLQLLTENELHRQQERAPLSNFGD
Test: pull-down; purified GST or GST-B-cyclin T1 immobilised on glutathione Sepharose 4B beads, incubated with purified His-fusion proteins; anti-His immunoblot; in the competition 20 μg GST-B-cyclin T1, 5 μg His-BTat and 1, 5, 10, 20 μg His-BHEXIM1
Details: both partners purified

B1: GST-B-cyclin T1 (aa 1-272) (domain or fragment, bovine, UniProt Q6T8E9 1-272, looked up)
chain: MEGERKNNNKRWYFTREQLENSPSRRFGLDPDKELSNRQQAANLLQDMGQRLNVSQLTINTAIVYMHRFYMIQSFTQFHRNSVAPAALFLAAKVEEQPKKLEHVIKVAHTCLHPQESLPDTRSEAYLQQVQDLVILESIILQTLGFELTIDHPHTHVVKCTQLVRASKDLAQTSYFMATNSLHLTTFSLQYTPPVVACVCIHLACKWSNWEIPVSTDGKHWWEYVDATVTLELLDELTHEFLQILEKTPNRLKRIWNWRAWQADRKTKADDR
notes: bovine cyclin T1, residues 1-272; pGEX6p-1 vector; source: E. coli BL21 (DE3), purified (glutathione Sepharose 4B)
- binding result: binds

Source: article PMC3630055, “Bovine HEXIM1 inhibits bovine immunodeficiency virus replication through regulating BTat-mediated transactivation” (Veterinary Research, 2013)
